Reference: patent publication US20250368744A1 (CONCEPT TO MEDICINE BIOTECH, published 2025)
Where a chain is given by its changes, count along the chain named.

T1: human CCR4 (human, UniProt P51679 1-360)
T1 construct: whole, on cells; also called hCCR4
T1 sequence (looked up): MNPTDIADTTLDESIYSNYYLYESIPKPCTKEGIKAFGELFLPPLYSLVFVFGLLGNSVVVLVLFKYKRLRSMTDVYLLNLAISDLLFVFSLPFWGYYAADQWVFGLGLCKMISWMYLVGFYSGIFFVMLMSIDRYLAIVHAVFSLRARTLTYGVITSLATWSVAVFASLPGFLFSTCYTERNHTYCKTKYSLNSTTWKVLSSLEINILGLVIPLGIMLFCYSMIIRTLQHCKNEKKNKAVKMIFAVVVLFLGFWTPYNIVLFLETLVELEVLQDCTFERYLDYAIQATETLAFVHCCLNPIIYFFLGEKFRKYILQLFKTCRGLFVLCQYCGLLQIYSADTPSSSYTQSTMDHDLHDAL

B1: 86D4E12A5 (antibody, V domains shown)
VH: DLQLKESGPGLVKPSQSLSLTCSVTGYSITSGYYWNWIRQLPGNKLEWMGYISFDGSNNYNPSLKTRISITRDTSKNQFFLKLNSVTSEDTATYFCARLRGLLLGHFDVWGTGTTVTVSS
VL: DVQMTQSSSYLSVPLGGRVTITCKASDHINNRLAWYQQKPGNAPRLLISGATKLETGIPSRFRGSGSGKDYTLSIFSLQTEDVATYYCQQYWSTSYTFGGGTKLELR
notes: tested as chimeric mAb
B2: 187B5F10 (antibody, V domains shown)
VH: EVQLVGSGGGLVQPKGSLKLSCAASGFNFNTYVMNWVRQAPGKGLEWVARIRTKSNNYATYYADSVKDRFTISRDDSESKLYLQMNNLKTEDTAMYYCVSGTITRLGGGMDYWGQGTSVTVSS
VL: DIVMTQAAPSVPVTPGESVSISCRSSKRLLHSNGNTYLYWFLQRPGQSPQLLIYRMSNLASGVPDRFSGSGSGTAFTLRISRVEAEDVGVYYCMQHLEYPFTFGGGTKLEIK
notes: tested as chimeric mAb
B3: 84D1-2H3 (antibody, V domains shown)
VH: EVQLQQSGPVLVKPGASVKMSCKASGYTFTDYYVNWVKKSHGKSPEWIGIIKPYNGGTSYNQKFKGKATLTVDKSSSTVYMELNSLTSEDSAVYHCARFAYSRNPYAMDYWGQGTSVTVSS
VL: DVLLTQTPLSLPVSLGDQASISCRSSQSIVHSTGNTYLEWYLQKPGQSPKVLIYKVSTRFSGVPDRFSGSGSGTDFTLKISRVEAEDLGVYYCFQGSHVPPTFGGGTKLEIK
notes: tested as chimeric mAb of the mouse hybridoma clone
B4: 96G3-1F10 (antibody, V domains shown)
VH: DLQLKESGPGLVKPSQSLSLTCSVTGYSITSGYYWNWIRQFPGNKLEWMGFISYDGNNNYNPSLKNRISITRDTSKNQFFLNVKSVTTEDTATYYCSRATGLRKAWFAYWGQGTLVTVSA
VL: DIQMTQSSSYLSVSLGGRVTITCKASDHINNWLAWYQQKPGNAPRLLISDTTSLGTGVPSRFRGSGSGKDYTLSITSLQTEDVATYFCQQYWSYPYTFGGGTKLEIR
notes: tested as chimeric mAb
B5: 115C5E3B8 (antibody, V domains shown)
VH: DVQLQESGPGLVKPSQSLSLTCSVTGYSITSGYYWNWIRQFPGNKLEWMGYISYDGYNDYNPSLKNRISITRDTSKNQFFLKLNSVTTEDTATYYCARETGLRKAWFAYWGQGTLVTVSG
VL: B4 VL with W32R, T52S, G55E, R63S, S74R, F87Y, S93G, Y94T, R107K
notes: tested as chimeric mAb
B6: 101D5G10G4 (antibody, V domains shown)
VH: B4 VH with F51Y, V83L, K84N
VL: B4 VL
notes: tested as chimeric mAb
B7: Hu195H8D10-13 (antibody, V domains shown)
VH: B2 VH with G6E, K15G, K19R, K80S, N87S, M110L, S118L
VL: B2 VL with A7S, A8P, P9L, V11L, S18P, V19A, F41Y, R44K, A75D, R79K
notes: humanized
B8: Hu200C9B9-5 (antibody, V domains shown)
VH: EVQLVESGGGLVQPGGSLRLSCAASGFSFNTYVMNWVRQAPGKGLEWVARIRTKSNNYATFYVDSVKDRFTISRDDSKNSLYLQMNSLKTEDTAVYYCVSGTITRLGAGLDYWGQGTLVTVSS
VL: DIVMTQSPLSLPVTPGEPASISCRSSKSLLHSNGNTYLYWYLQKPGQSPQLLIYRMSNLASGVPDRFSGSGSGTDFTLKISRVEAEDVGVYYCMQHLEYPFTFGGGTKLEIK
notes: humanized
B9: Hu200C9B9-2 (antibody, V domains shown)
VH: B8 VH with A49G, V99A, S100R
VL: B8 VL with Y41F
notes: humanized
B10: Hu200C9B9-14 (antibody, V domains shown)
VH: B8 VH with E46N, K78E
VL: B8 VL with Y41F
notes: humanized
B11: Hu200C9B9-12 (antibody, V domains shown)
VH: B8 VH with E46N
VL: B8 VL with Y41F, D75A
notes: humanized
B12: Hu200C9B9-11 (antibody, V domains shown)
VH: B8 VH with E46N
VL: B8 VL with D75A
notes: humanized
B13: Hu200C9B9-10 (antibody, V domains shown)
VH: B8 VH with E46N
VL: B8 VL with Y41F
notes: humanized
B14: Hu195H8D10-14 (antibody, V domains shown)
VH: B8 VH with S28N, F61Y, V63A, K78E, N79S, V95M, A108G
VL: B8 VL with S28R, Y41F
notes: humanized
B15: Hu200C9B9-15 (antibody, V domains shown)
VH: B8 VH with E46N, K78E
VL: B8 VL with D75A
notes: humanized
B16: Hu200C9B9-8 (antibody, V domains shown)
VH: B8 VH
VL: B8 VL with Y41F, D75A
notes: humanized
B17: Hu200C9B9-1 (antibody, V domains shown)
VH: B8 VH with A49G, V99A, S100R
VL: B8 VL
notes: humanized
B18: 99D1-1E11 (antibody, V domains shown)
VH: B1 VH with L41F, F54Y, F95Y, A97V, L99E
VL: B1 VL with V2I, P14A
notes: tested as chimeric mAb
B19: Hu195H8D10-1 NG-NA (antibody, V domains shown)
VH: B8 VH with S28N, A49G, F61Y, V63A, V99A, S100R, A108G
VL: B8 VL with S28R, G34A
notes: humanized, PTM site removed

Each binder was assayed against T2, human C-C motif chemokine receptor 8 (CCR8) (human, UniProt P51685 1-355) (assay: cell-based or functional assay).
T2 sequence (P51685 whole entry): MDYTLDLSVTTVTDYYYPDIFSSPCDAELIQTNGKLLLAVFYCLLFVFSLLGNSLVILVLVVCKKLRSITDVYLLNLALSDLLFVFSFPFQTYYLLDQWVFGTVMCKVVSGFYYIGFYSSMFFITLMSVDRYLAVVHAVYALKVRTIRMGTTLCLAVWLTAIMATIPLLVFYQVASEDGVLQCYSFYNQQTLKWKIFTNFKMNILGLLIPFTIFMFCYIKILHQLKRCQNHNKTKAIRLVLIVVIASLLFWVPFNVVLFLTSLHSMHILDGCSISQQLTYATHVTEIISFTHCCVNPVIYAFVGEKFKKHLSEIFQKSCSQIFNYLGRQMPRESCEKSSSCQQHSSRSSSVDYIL

| IC50 (read off the curve), hCCL1-induced Ca2+ flux (stimulation %), Chem-1 hCCR8 cells [upper graph] | IC50, hCCL1-induced Ca2+ flux (stimulation %), Chem-1 hCCR8 cells [lower graph] | IC50, hCCL1-induced Ca2+ flux (stimulation %), Chem-1 hCCR8 cells; fitted value, the curve stays at about 93 to 100 % beside hIgG1 [upper graph] | IC50, hCCL1-induced Ca2+ flux (stimulation %), Chem-1 hCCR8 cells [upper graph] | Binder |
| --- | --- | --- | --- | --- |
| ~2 nM | 12.1 nM | – | – | B1 |
| – | 1.55 nM | – | – | B2 |
| – | – | 22 nM | – | B3 |
| – | – | – | 15.2 nM | B4 |
| – | – | – | 17.8 nM | B5 |
| – | – | – | 25.9 nM | B6 |

These binders were tested against T2, human C-C motif chemokine receptor 8 … (assay: FACS (MFI-PE) on CHO-K1 hCCR8 cells, bars at five doses).
Experimental: PE Goat anti-Human IgG Fc Secondary Antibody (eBioscience™, Invitrogen) was added to each well and incubated at 4° C. for 30 mins. Samples were washed twice with FACS buffer. The mean florescence intensity (MFI) of PE was evaluated by MACSQuant Analyzer 16.

| binding result | Binder |
| --- | --- |
| binds | B7 |
| binds | B8 |
| binds | B9 |
| binds | B10 |
| binds | B11 |
| binds | B12 |
| binds | B13 |
| binds | B14 |
| binds | B15 |
| binds | B16 |
| binds | B17 |

What follows are binders tested against T1, human CCR4 (assay: FACS, CHO-K1 hCCR4 cells).
Experimental: (§1) Briefly, HEK293 hCCR8 cell line, CHO-K1 cyno CCR8 cell line or CHO-K1 hCCR4 cell line was first incubated with 5-fold serially diluted and 8 doses with the above 10 chimeric Abs and hlgG1 control starting from 100 nM at 4° C. for 30 mins. After washing by FACS buffer, PE Goat anti-Human IgG Fc Secondary Antibody (eBioscience™, Invitrogen) was added to each well and incubated at 4° C. for 30 mins. Samples were washed twice with FACS buffer. The mean florescence intensity (MFI) of PE was evaluated by MACSQuant Analyzer 16.

| Binder | binding result |
| --- | --- |
| B1 | no binding (tested: 100 nM (highest concentration tested)) |
| B18 | no binding (tested: 100 nM (highest concentration tested)) |
| B2 | no binding (tested: 100 nM (highest concentration tested)) |
| B3 | no binding (tested: 100 nM (highest concentration tested)) |
| B4 | no binding (tested: 100 nM (highest concentration tested)) |
| B5 | no binding (tested: 100 nM (highest concentration tested)) |
| B6 | no binding (tested: 100 nM (highest concentration tested)) |

These binders were tested against T2, human C-C motif chemokine receptor 8 … (assay: FACS (MFI-PE) on HEK293 hCCR8 cells).

| EC50 | Binder |
| --- | --- |
| 0.033 nM | B19 |

Target: T2, human C-C motif chemokine receptor 8 …
Assay: cell-based or functional assay
Remark: another data set of the same source

| IC50, hCCL1-induced migration of BaF3 hCCR8 cells (RLU) [cont'd) C] | Binder |
| --- | --- |
| 2.67 nM | B1 |
| 0.721 nM | B2 |
| 5.28 nM | B4 |

The binders below were run against T3, cyno CCR8 (cynomolgus, UniProt G7NYJ2 1-355) (assay: FACS (MFI-PE) on CHO-K1 cyno CCR8 cells).
T3 construct: whole, on cells; also called cynomolgus CCR8 protein
T3 sequence (G7NYJ2 entry or part of it): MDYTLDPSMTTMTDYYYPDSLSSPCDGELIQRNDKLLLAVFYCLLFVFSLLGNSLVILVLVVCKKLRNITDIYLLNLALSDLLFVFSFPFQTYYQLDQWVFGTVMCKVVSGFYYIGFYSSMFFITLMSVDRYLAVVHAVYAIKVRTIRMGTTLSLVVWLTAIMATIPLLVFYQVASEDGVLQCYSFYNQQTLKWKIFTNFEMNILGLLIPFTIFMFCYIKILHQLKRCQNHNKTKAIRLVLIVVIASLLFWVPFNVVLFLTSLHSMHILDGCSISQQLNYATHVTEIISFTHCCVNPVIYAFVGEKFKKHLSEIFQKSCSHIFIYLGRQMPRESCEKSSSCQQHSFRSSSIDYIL
Experimental: as §1

| EC50 | Binder |
| --- | --- |
| 0.122 nM | B1 |
| 0.0942 nM | B18 |
| 0.0273 nM | B3 |
| 0.0853 nM | B4 |
| 0.118 nM | B6 |

Target: T2, human C-C motif chemokine receptor 8 …
Assay: cell-based or functional assay
Remark: another data set of the same source

| IC50, hCCL1-induced beta-arrestin recruitment (RLU), CHO-K1 hCCR8 cells | IC50, hCCL1-induced beta-arrestin recruitment (RLU), CHO-K1 hCCR8 cells; fitted value, points scatter between about 24000 and 33000 RLU with no clear inhibition | Binder |
| --- | --- | --- |
| 11.2 nM | – | B1 |
| – | 0.206 nM | B3 |
| 9.01 nM | – | B4 |
| 2.28 nM | – | B5 |
| 96.9 nM | – | B6 |

Target: T2, human C-C motif chemokine receptor 8 …
Assay: FACS (MFI-PE) on HEK293 hCCR8 cells
Remark: another data set of the same source
Experimental: as §1

| EC50 | Binder |
| --- | --- |
| 0.17 nM | B1 |
| 0.101 nM | B18 |
| 0.0769 nM | B2 |
| 0.0473 nM | B3 |
| 0.109 nM | B4 |
| 0.126 nM | B5 |
| 0.117 nM | B6 |

Target: T2, human C-C motif chemokine receptor 8 …
Assay: cell-based or functional assay
Remark: another data set of the same source

| IC50, hCCL1-induced beta-arrestin recruitment (RLU), CHO-K1 hCCR8 cells | Binder |
| --- | --- |
| 1.52 nM | B19 |
